Assay [1] addresses T1, CD40-human Fc (huFc) fusion protein (Creative BioMart) (human, UniProt P25942 21-193).
T1 construct: bought; also called CD40-huFc; not shown: human Fc
Briefly: ELISA: 1 µg/mL CD40-huFc with control huIgG1 on plate coated or not coated with HA-tagged CD40L, detection with HRP anti-human Fc. From the text:
(§1) After development with TMB (3, 3′, 5, 5′-tetramethylbenzidine) substrate, the plates were read at OD₄₅₀.
A general note: In an ELISA, binding on a coated surface is turned into a signal by an enzyme label.

The target in assay [2] is soluble form of the extracellular domain of human CD40 (Creative BioMart, cat #CD402221H) (human, UniProt P25942 21-193). Description: SPR (BIAcore T200); antibody captured by anti-Fc; soluble CD40 injected. The protocol: (§2) CD40 binding kinetics was analyzed by BIAcore assay with a BIAcore T200 instrument. Briefly, a goat anti-mouse Fc antibody (Pierce, cat #31170) or goat anti-human Fc (Pierce, cat #31125) was immobilized on a CM5 sensor chip, followed by capture of the anti-CD40 antibodies on the test surface.
soluble form of the extracellular domain of human CD40 (Creative BioMart, cat #CD402221H), sequence (P25942 21-193 limits assumed): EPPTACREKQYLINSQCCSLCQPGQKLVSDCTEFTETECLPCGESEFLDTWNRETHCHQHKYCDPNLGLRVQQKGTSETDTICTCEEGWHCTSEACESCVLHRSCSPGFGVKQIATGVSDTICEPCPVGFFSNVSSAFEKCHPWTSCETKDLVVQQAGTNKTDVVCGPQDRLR
A general note: In SPR one partner is held on a chip, and binding of the other changes the refractive index at the surface.

The target in assay [3] is T2, soluble cynomolgus (cyno) CD40 (Creative BioMart, cat #CD40-8824C) (cynomolgus, UniProt G7PG38 21-193).
T2 construct: extracellular domain; also called Cynomolgus CD40
The assay is described as above. The protocol: as §2

The target of assay [4] is T3, human FcγRIIIA (CD16) with V polymorphism on CHO cells (human, UniProt P08637 17-254).
T3 construct: whole, on cells; V allotype; also called CD16V
T3 sequence (P08637 17-254 F176V): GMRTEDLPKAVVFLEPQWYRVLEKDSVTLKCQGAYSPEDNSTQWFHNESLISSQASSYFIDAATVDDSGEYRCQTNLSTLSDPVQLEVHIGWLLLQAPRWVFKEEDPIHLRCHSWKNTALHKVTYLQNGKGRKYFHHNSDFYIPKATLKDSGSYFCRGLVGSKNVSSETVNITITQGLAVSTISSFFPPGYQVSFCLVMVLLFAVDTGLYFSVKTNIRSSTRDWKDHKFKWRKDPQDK
Description: flow cytometry on CHO cells stably expressing human FcγRIIIA (CD16V), detection with fluorescence-conjugated anti-human F(ab')2 secondary antibody. The method, then:
(§3) Increasing amounts of anti-CD40 human IgG₁ antibodies and their Fc variants were incubated with CHO cells stably expressing different human Fcγ receptors, including FcγRI (CD64), FcγRIIA (CD32a), FcγRIIB (CD32b), and FcγRIIIA (CD16) with either F or V polymorphism. The binding was detected with a fluorescence-conjugated anti-human F(ab′)2 specific secondary antibody (Jackson ImmunoResearch).
Background: In flow cytometry, cells or beads pass a laser one at a time.

The target of assay [5] is T4, human FcγRIIB (CD32b) on CHO cells (human, UniProt P31994 43-310).
T4 construct: whole, on cells
T4 sequence (looked up): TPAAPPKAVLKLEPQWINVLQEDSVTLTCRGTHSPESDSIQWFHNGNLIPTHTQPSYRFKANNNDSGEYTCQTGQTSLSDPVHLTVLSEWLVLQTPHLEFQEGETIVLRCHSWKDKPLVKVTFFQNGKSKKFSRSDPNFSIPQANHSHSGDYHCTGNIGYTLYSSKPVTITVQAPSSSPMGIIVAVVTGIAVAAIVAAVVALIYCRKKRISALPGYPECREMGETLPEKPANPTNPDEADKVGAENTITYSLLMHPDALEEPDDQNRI
Description: flow cytometry on CHO cells stably expressing human FcγRIIB (CD32b), detection with fluorescence-conjugated anti-human F(ab')2 secondary antibody. The protocol: as §3

The target in assay [6] is T5, human FcγRIIA (CD32a) on CHO cells (human, UniProt P12318 34-317).
T5 construct: whole, on cells
T5 sequence (looked up): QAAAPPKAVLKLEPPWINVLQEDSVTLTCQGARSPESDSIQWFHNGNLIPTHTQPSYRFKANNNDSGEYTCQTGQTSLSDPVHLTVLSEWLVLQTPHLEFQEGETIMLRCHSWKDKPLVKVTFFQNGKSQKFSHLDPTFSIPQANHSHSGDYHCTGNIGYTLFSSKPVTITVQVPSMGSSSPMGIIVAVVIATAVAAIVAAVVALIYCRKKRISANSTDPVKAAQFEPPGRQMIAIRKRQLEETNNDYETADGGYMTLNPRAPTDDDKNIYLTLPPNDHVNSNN
Description: flow cytometry on CHO cells stably expressing human FcγRIIA (CD32a), detection with fluorescence-conjugated anti-human F(ab')2 secondary antibody. The protocol: as §3

For assay [7], the target named is T6, human FcγRI (CD64) on CHO cells (human, UniProt P12314 16-374).
T6 construct: whole, on cells
T6 sequence (P12314 16-374): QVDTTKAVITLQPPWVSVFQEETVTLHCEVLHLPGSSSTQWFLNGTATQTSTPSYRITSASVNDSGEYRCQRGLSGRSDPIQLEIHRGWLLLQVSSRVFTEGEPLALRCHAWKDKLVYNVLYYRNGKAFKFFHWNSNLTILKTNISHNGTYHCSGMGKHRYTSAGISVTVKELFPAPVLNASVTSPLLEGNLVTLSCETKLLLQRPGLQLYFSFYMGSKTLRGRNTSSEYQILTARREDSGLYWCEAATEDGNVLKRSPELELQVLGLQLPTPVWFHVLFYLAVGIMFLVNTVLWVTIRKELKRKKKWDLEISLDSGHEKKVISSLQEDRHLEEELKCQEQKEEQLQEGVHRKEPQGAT
Briefly: flow cytometry on CHO cells stably expressing human FcγRI (CD64), detection with fluorescence-conjugated anti-human F(ab')2 secondary antibody. The protocol: as §3

Assay [8] has as its target T1, CD40-human Fc (huFc) fusion protein …. Briefly: competition ELISA: antibody titrated into 1 µg/mL CD40-huFc, mixture added to plate coated with HA-tagged CD40L, bound CD40-huFc detected with HRP anti-human Fc; blocked ligand: CD40L.
Excerpt: as §1

The target of a further assay is human CD40 on cells (human, UniProt P25942 21-277). Description: cell-based or functional assay.
human CD40 on cells, sequence (P25942 21-277 limits assumed): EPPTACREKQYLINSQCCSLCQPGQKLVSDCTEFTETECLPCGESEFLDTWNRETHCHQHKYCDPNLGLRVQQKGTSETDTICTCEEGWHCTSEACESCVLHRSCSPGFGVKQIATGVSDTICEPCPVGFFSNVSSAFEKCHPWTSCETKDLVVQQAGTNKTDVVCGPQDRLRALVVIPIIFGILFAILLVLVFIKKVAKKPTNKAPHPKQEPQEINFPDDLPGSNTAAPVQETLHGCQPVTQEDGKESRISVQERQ

Data on six molecules can be found in patent US20210277137A1 (AbbVie / Abbott, published 2021).

T1 sequence (P25942 21-193 limits assumed): as the sequence (P25942 21-193 limits assumed) above

B1: HA-tagged CD40L (R&D Systems) (ligand)
chain: ENSFEMQKGDQNPQIAAHVISEASSKTTSVLQWAEKGYYTMSNNLVTLENGKQLTVKRQGLYYIYAQVTFCSNREASSQAPFIASLCLKSPGRFERILLRAANTHSSAKPCGQQSIHLGGVFELQPGASVFVNVTDPSQVSHGTGFTSFGLLKL
notes: bought; not shown: HA tag
Consider B1, for which the binding result in assay [1] is recorded as “binds”.

B2: Humanized muAb9 A2V (antibody, human IgG1, kappa)
heavy: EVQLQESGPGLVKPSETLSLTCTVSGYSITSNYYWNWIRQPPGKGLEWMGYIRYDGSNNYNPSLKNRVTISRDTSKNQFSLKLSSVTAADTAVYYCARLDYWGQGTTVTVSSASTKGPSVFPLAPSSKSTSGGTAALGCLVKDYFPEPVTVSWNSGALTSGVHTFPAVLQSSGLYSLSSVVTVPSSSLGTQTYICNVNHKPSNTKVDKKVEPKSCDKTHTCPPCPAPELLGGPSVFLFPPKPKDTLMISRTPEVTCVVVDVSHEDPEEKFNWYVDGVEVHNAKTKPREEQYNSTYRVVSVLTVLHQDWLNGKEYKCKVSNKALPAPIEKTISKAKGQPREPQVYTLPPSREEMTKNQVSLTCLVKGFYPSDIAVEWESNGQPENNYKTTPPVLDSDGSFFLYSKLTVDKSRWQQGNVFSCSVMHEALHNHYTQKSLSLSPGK
light: DVVMTQTPLSLSVTPGQPASISCRSSQSLENTNGNTFLNWYLQKPGQSPQLLIYRVSNRFSGVPDRFSGSGSGTDFTLKISRVEAEDVGVYYCLQVTHVPFTFGQGTKLEIKRTVAAPSVFIFPPSDEQLKSGTASVVCLLNNFYPREAKVQWKVDNALQSGNSQESVTEQDSKDSTYSLSSTLTLSKADYEKHKVYACEVTHQGLSSPVTKSFNRGEC
notes: human IgG1 V273E/kappa; also called huAb9 A2V
Take B2: in assay [2], the Kd stood at 170 nM, the koff is 0.26 s⁻¹ and the kon is 1.5e+06 M⁻¹ s⁻¹. In assay [3], this molecule displayed a Kd of 140 nM, a koff of 0.27 s⁻¹ and a kon of 1.9e+06 M⁻¹ s⁻¹.

B3: huAb9-5 human IgG1 V273E variant (antibody)
heavy: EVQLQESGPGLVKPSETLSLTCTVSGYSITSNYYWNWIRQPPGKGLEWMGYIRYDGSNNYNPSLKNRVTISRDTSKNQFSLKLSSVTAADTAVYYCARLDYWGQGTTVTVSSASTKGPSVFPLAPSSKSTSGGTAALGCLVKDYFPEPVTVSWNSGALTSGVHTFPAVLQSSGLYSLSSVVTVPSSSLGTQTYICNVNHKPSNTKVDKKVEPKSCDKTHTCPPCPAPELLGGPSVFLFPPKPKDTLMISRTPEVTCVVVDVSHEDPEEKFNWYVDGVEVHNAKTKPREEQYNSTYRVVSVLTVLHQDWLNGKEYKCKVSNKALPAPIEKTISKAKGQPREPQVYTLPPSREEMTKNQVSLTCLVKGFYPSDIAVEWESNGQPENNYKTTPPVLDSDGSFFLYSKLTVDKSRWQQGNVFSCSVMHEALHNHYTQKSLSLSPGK
light: DAVMTQTPLSLSVTPGQPASISCRSSQSLENTNGNTFLNWYLQKPGQSPQLLIYRVSNRFSGVPDRFSGSGSGTDFTLKISRVEAEDVGVYYCLQVTHVPFTFGQGTKLEIKRTVAAPSVFIFPPSDEQLKSGTASVVCLLNNFYPREAKVQWKVDNALQSGNSQESVTEQDSKDSTYSLSSTLTLSKADYEKHKVYACEVTHQGLSSPVTKSFNRGEC
notes: also called huAb9-5 V273E
As for B3, the binding result in [4], in assay [5] and in assay [6] was “binds” throughout. Moreover, in assay [7], the 50% effective concentration (EC50 (read off the curve)) was approximately 0.5 µg/mL.

B4: huAb9-5 human IgG1 V273Y variant (antibody)
heavy: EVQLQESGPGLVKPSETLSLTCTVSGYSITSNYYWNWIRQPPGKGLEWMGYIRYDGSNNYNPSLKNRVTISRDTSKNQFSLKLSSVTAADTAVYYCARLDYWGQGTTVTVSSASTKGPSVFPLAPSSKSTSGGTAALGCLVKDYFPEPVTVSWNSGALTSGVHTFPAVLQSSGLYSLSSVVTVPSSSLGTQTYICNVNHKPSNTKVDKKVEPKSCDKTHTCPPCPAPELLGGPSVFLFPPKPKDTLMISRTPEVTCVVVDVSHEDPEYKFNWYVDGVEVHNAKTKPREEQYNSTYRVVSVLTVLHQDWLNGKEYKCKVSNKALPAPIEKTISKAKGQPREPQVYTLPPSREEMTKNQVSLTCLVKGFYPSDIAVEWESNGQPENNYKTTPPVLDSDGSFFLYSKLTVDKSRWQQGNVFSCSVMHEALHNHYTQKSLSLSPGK
light: DAVMTQTPLSLSVTPGQPASISCRSSQSLENTNGNTFLNWYLQKPGQSPQLLIYRVSNRFSGVPDRFSGSGSGTDFTLKISRVEAEDVGVYYCLQVTHVPFTFGQGTKLEIKRTVAAPSVFIFPPSDEQLKSGTASVVCLLNNFYPREAKVQWKVDNALQSGNSQESVTEQDSKDSTYSLSSTLTLSKADYEKHKVYACEVTHQGLSSPVTKSFNRGEC
notes: also called huAb9-5 V273Y
On to B4, for which the binding result in assay [5] and in assay [6] was “binds” throughout. The 50% effective concentration (EC50 (read off the curve)) in assay [7] was approximately 0.4 µg/mL.

B5: Humanized muAb8 #1 (antibody, V domains shown)
VH: EVQLVQSGAEVKKPGSSVKVSCKASGYTFTDYYINWVRQAPGQGLEWIGWIFPGSGSVYCNEQFKGRATLTVDRSTSTAYMELSSLRSEDTAVYFCASSLGKFAYWGQGTLVTVSS
VL: DIQMTQSPSSLSASVGDRVTITCKASQSVVTAVAWYQQKPGKSPKLLIYSASNRYTGVPSRFSGSGSGTDFTLTISSLQPEDFATYFCQQYSSYPYTFGGGTKVEIK
notes: human IgG1 constant region (natural variants D356E and L358M) and kappa light chain; also called huAb8-1
As to B5, the “IC50 (read off the curve)” value in assay [8] is approximately 0.3 µg/mL. In the assay with human CD40 on cells, the “Maximal activation (OD655) in HEK293 blue CD40 NFκB reporter cells” value turned out to be 0.45 OD655 and the “NFκB activation EC50 (SEAP, OD655) in HEK293 blue CD40 NFκB reporter cells” value amounted to 0.14 µg/mL.

B6: Humanized muAb8 #3 (antibody, V domains shown)
VH: EVQLVQSGAEVKKPGSSVKVSCKASGYTFTDYYINWVRQAPGQGLEWIGWIFPGSGSVYCNEQFKGRVTITVDKSTSTAYMELSSLRSEDTAVYYCASSLGKFAYWGQGTLVTVSS
VL: DIQMTQSPSSLSASVGDRVTITCKASQSVVTAVAWYQQKPGKSPKLLIYSASNRYTGVPSRFSGSGSGTDFTLTISSLQPEDFATYFCQQYSSYPYTFGGGTKVEIK
notes: human IgG1 constant region (natural variants D356E and L358M) and kappa light chain; also called huAb8-3
Regarding B6, the “IC50 (read off the curve)” value in [8] is approximately 0.3 µg/mL. Also, in the assay with human CD40 on cells, the “Maximal activation (OD655) in HEK293 blue CD40 NFκB reporter cells” value is 0.46 OD655 and the “NFκB activation EC50 (SEAP, OD655) in HEK293 blue CD40 NFκB reporter cells” value is 0.07 µg/mL.

In general, Kd refers to the concentration at which binding is half-saturated. As usually defined, the koff is a measure of how fast the partners let go of each other. Higher therefore signals fast dissociation. In general, kon refers to a measure of how fast the partners come together. Usually EC50 (read off the curve) stands for the concentration giving half of the maximal effect.
